From patent US20250346679A1 (INVOX PHARMA, published 2025)
Blank lines part the entries; values can stand above or below the binder they belong to.

Tests used:
[1] = molecular target: T1, FcgRIIA 131H on CHO cells (UniProt P12318 34-317, limits assumed); assay: flow cytometry on CHO cells over-expressing FcγRIIA 131H, anti-human IgG AF-488 detection
T1 construct: whole, on cells; also called CHO.FcγRIIA.131H
T1 sequence (looked up): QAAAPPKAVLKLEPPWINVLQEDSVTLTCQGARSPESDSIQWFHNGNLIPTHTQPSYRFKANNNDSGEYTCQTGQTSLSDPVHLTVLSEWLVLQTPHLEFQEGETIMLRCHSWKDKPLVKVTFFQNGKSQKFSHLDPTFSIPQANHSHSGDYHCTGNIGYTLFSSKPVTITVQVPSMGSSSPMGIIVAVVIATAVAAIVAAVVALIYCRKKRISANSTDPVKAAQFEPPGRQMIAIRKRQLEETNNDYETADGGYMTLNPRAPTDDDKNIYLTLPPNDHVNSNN
Text: (§1) However, in order to circumnavigate potential off-target effects such as systemic CD137 activation due to crosslinking by Fcγ receptor binding and to decrease the possibility of inducing ADCC of immune cells, for example T cells, that express both targets, it was decided to decrease the Fcγ receptor binding ability of the anti-human CD137/PD-L1 mAb² by introduction of a LALA mutation in the CH2 domain (see Example 3.2 for details on the LALA format).
(§2) Briefly, CHO.FcγRIIA.131H, […], CHO.FcγRIIIA.158F, CHO.FcγRIIIA.158V, CHO.FcγRIIB, or CHO.WT suspensions were prepared in FACS buffer (DPBS containing (Gibco, 14190-094) containing 0.5% BSA (Sigma, A7906)) and seeded at 1×10⁵ cell/well in 100 μl in round bottomed 96-well plates (VWR, 734-1797). […] The washed cells were resuspended in the diluted antibody mixture, incubated at 4° C. for 30 minutes, and then washed once in FACS buffer. […] The geometric mean fluorescence intensity (GMFI) values were plotted vs the log concentration of antibody and the resulting curves were fitted using the log (agonist) vs response equation in GraphPad Prism.

FcgRIIB on CHO cells = molecular target: T2, FcgRIIB on CHO cells (UniProt P31994 43-310); assay: flow cytometry on CHO cells over-expressing FcγRIIB, anti-human IgG AF-488 detection
T2 construct: whole, on cells; also called CHO.FcγRIIB
T2 sequence (looked up): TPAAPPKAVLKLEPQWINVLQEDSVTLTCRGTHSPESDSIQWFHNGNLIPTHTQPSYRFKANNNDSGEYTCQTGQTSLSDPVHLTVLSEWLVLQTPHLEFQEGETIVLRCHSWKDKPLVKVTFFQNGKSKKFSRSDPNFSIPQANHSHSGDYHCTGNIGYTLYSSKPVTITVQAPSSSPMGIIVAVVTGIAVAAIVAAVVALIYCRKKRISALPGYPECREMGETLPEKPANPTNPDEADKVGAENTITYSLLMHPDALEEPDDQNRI
Text: as §1, §2

[2] = molecular target: T3, FcgRIIIA 158F on CHO cells (UniProt P08637 17-254, limits assumed); assay: flow cytometry on CHO cells over-expressing FcγRIIIA 158F, anti-human IgG AF-488 detection
T3 construct: whole, on cells; also called CHO.FcγRIIIA.158F
Text: as §1, §2

[3] = molecular target: T4, FcgRIIIA 158V on CHO cells (UniProt P08637 17-254); assay: flow cytometry on CHO cells over-expressing FcγRIIIA 158V, anti-human IgG AF-488 detection
T4 construct: whole, on cells; also called CHO.FcγRIIIA.158V
Text: as §1, §2

[4] = molecular target: human PD-L1, cell-surface (human, UniProt Q9NZQ7 19-290); assay: cell-based or functional assay
Cyno PD-L1-rCD4-His = molecular target: T5, Cyno PD-L1-rCD4-His (cynomolgus, UniProt Q9NZQ7 19-238 (human entry)); assay: SPR
T5 construct: also called cynomolgus PD-L1-rCD4-His; not shown: rat CD4 domains 3 and 4 and His tag

hPD-L1-rCD4-His [5] = molecular target: T6, hPD-L1-rCD4-His (human); assay: SPR
T6 construct: also called human PD-L1-rCD4-His; hu-PD-L1-rCD4-His

hPD-L1-rCD4-His [6] = molecular target: T6, hPD-L1-rCD4-His; assay: SPR, culture supernatants
[7] = molecular target: mouse CD137, cell-surface (mouse, UniProt P20334 24-256); assay: cell-based or functional assay
[8] = molecular target: T7, human CD137, cell-surface (human, UniProt Q07011 24-255); assay: flow cytometry on DO11.10.hCD137; DO11.10 cells overexpressing human CD137 (DO11.10.hCD137)
T7 construct: over-expressed on DO11.10 or HEK cells or endogenous on primary T cells, as named under assay; also called DO11.10.hCD137; HEK.FRT.luc.hCD137
Protocol: (§3) Non-specific binding was also assessed by testing binding to DO11.10 cells lacking CD137 expression.
(§4) Briefly, DO11.10, DO11.10.hCD137 or DO11.10.cCD137 suspensions were prepared in FACS buffer (DPBS containing (Gibco, 14190-094) containing 0.5% BSA (Sigma, A7906)) and seeded at 1×10⁵ cell/well in 100 μl in round bottomed 96-well plates (VWR, 734-1797). […] The washed cells were resuspended in the diluted antibody mixture, incubated at 4° C. for 30 minutes, and then washed once in FACS buffer. […] Dead cells were excluded and the fluorescence in the APC channel (638 nm 660/20) was measured. The geometric mean fluorescence intensity (GMFI) values were plotted vs the log concentration of antibody and the resulting curves were fitted using the log (agonist) vs response equation in GraphPad Prism.

[9] = molecular target: T8, cynomolgus CD137, cell-surface (cynomolgus, UniProt Q07011 24-255 (human entry)); assay: flow cytometry on DO11.10.cCD137
T8 construct: also called DO11.10.cCD137; CD137 on cynomolgus T cells
T8 chain: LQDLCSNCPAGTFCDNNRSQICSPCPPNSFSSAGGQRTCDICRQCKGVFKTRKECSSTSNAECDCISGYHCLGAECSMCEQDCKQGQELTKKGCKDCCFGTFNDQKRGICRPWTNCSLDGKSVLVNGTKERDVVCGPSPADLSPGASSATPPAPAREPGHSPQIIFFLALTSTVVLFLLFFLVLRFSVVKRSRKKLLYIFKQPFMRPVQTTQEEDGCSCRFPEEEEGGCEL
Protocol: as §3, §4

[10] = molecular target: T7, human CD137, cell-surface; assay: cell-based or functional assay

T6 sequence (chain, as listed by the source): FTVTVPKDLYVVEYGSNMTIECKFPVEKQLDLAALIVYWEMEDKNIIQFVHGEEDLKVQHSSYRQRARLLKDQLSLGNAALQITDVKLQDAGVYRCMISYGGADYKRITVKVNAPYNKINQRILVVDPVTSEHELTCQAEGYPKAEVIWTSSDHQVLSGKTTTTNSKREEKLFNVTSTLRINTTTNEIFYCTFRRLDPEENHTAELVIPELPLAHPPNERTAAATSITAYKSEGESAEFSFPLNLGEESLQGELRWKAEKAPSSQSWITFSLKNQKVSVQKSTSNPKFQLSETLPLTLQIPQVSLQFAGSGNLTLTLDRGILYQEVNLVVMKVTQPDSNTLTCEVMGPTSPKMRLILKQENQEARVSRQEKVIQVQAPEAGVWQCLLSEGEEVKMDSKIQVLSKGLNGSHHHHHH
T5 sequence (Q9NZQ7 other isoform, or with tags, fused parts or gaps): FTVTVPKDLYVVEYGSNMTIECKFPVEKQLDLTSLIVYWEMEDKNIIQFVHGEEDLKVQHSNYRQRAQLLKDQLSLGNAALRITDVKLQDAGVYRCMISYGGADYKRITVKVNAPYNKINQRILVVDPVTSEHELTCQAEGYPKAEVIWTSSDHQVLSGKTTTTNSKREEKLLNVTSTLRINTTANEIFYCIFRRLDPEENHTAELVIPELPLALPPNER
T4 sequence (P08637 17-254 F176V limits assumed): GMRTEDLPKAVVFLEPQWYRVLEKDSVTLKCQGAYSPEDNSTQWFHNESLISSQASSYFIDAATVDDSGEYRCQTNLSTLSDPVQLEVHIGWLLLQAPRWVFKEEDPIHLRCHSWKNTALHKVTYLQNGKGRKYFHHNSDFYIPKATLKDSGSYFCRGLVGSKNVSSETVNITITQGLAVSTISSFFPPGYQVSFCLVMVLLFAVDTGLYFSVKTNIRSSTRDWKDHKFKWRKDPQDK
T3 sequence (P08637 17-254 limits assumed): as the sequence (P08637 17-254 F176V limits assumed) above, with V160F counted along it
mouse CD137, cell-surface, sequence (P20334 24-256): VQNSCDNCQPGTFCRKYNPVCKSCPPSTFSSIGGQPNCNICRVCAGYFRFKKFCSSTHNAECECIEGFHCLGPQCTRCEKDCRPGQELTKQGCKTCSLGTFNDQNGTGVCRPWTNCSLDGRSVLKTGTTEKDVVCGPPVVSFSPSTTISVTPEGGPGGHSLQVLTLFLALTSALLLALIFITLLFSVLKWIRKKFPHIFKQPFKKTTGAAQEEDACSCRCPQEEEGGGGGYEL
human PD-L1, cell-surface, sequence (Q9NZQ7 19-290): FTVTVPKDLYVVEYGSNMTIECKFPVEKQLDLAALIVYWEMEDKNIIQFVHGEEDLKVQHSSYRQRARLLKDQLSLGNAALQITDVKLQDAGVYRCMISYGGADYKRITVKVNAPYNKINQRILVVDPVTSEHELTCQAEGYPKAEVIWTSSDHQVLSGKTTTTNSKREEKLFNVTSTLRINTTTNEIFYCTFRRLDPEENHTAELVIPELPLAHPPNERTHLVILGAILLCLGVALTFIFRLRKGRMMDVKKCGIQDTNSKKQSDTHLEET

- binding result [1]: binds
- binding result (FcgRIIB on CHO cells): binds
- binding result [2]: binds
- binding result [3]: binds
B1: G1/4420 (antibody, human IgG1, kappa)
heavy: not shown
light: DVVMTQTPLSLPVSLGDQASISCRSSQSLVHSNGNTYLRWYLQKPGQSPKVLIYKVSNRFSGVPDRFSGSGSGTDFTLKISRVEAEDLGVYFCSQSTHVPWTFGGGTKLEIKRTVAAPSVFIFPPSDEQLKSGTASVVCLLNNFYPREAKVQWKVDNALQSGNSQESVTEQDSKDSTYSLSSTLTLSKADYEKHKVYACEVTHQGLSSPVTKSFNRGEC

- EC50, luciferase, Jurkat-NFAT PD-1 / PD-L1 cell co-culture assay [4]: 4.2 nM
B2: G1/280_02_G02 (antibody, human IgG1, V domains shown)
VH: EVQLVQSGAEVKRPGASVKVSCKASGYTFTSYGISWVRQAPGQGLEWMGWISAYNGNTNYAQKLQGRVTMTTDTSTSTAYMELRSLRSDDTAVYYCARDLFPTIFGVSYYYYWGQGTLVTVSS
VL: QSALTQPASVSGSPGQSITISCTGTSSDVGGYNSVSWYQQFPGKAPKLMIFEVTNRPSGVSDRFSGSKSDNTASLTISGLQAEDEAEYYCSSFKRGSTLVVFG

- fold lower affinity than G1-AA/E12v2 (Cyno PD-L1-rCD4-His): > 10 fold
- fold lower affinity than G1-AA/E12v2 (hPD-L1-rCD4-His [5]): > 10 fold
B3: G1/929_01_A02 (antibody, IgG1, V domains shown)
VH: EVQLVQSGAEVKRPGASVKVSCKASGYTFTSYGISWVRQAPGQGLEWMGWISAYSGGTNYAQKLQGRVTMTTDTSTSTAYMELRSLRSDDTAVYYCARDLFPTIFGVSYYYYWGQGTLVTVSS
VL: DIQMTQSPSTLSASVRDRVIITCRASQSIGNRLAWYQHKPGKAPKLLIYEASTSETGVPSRFSGSGSGTDFTLTISSLQPEDFATYYCQQSYSTPYTFGQGTKLEIK
notes: IgG1 without LALA

- binding result (hPD-L1-rCD4-His [6]): binds
B4: G1/929_01_A08 (antibody, IgG1, V domains shown)
VH: EVQLVQSGAEVKRPGASVKVSCKASGYTFTSYGISWVRQAPGQGLEWMGWISAYSGGTNYAQKLQGRVTMTTDTSTSTAYMELRSLRSDDTAVYYCARDLFPTIFGVSYYYYWGQGTLVTVSS
VL: DIQMTQSPSTLSASVGDRVTITCRASQSISGRLAWYQQKPGKAPNLLIYEASNLESGVPSRFSGSGSGTEFTLTISSLQPEDFATYYCQQSYSTPRVTFGQGTKVEIK
notes: IgG1 without LALA; SGGT variant of G1/894_08_E05, became G1-AA/E05v2 with LALA

- binding result (hPD-L1-rCD4-His [6]): binds
B5: G1/929_01_A11 (antibody, IgG1, V domains shown)
VH: EVQLVQSGAEVKRPGASVKVSCKASGYTFTSYGISWVRQAPGQGLEWMGWISAYSGGTNYAQKLQGRVTMTTDTSTSTAYMELRSLRSDDTAVYYCARDLFPTIFGVSYYYYWGQGTLVTVSS
VL: DIQMTQSPSTLSASVGDRVTITCRASQSISGRLAWYQQKPGKAPNLLIYEASNLESGVPSRFSGSGSGTEFTLTISSLQPEDFATYYCQQSYSWPRTFGQGTKVEIK
notes: IgG1 without LALA

- Emax (pg/ml), mIFN-γ release, OT-1 CD8+ T cell activation assay (EC50 n/a) [7]: 3850 pg/mL
B6: FS22m-063-AA/HeID1.3 (bispecific antibody, human IgG1, kappa, L234A L235A)
heavy: QVQLQESGPGLVRPSQTLSLTCTVSGSTFSGYGVNWVRQPPGRGLEWIGMIWGDGNTDYNSALKSRVTMLVDTSKNQFSLRLSSVTAADTAVYYCARERDYRLDYWGQGSLVTVSSASTKGPSVFPLAPSSKSTSGGTAALGCLVKDYFPEPVTVSWNSGALTSGVHTFPAVLQSSGLYSLSSVVTVPSSSLGTQTYICNVNHKPSNTKVDKKVEPKSCDKTHTCPPCPAPEAAGGPSVFLFPPKPKDTLMISRTPEVTCVVVDVSHEDPEVKFNWYVDGVEVHNAKTKPREEQYNSTYRVVSVLTVLHQDWLNGKEYKCKVSNKALPAPIEKTISKAKGQPREPQVYTLPPSRDEPYWSYVSLTCLVKGFYPSDIAVEWESNGQPENNYKTTPPVLDSDGSFFLYSKLTVMNYRWELGNVFSCSVMHEALHNHYTQKSLSLSPG
light: DIQMTQSPASLSASVGETVTITCRASGNIHNYLAWYQQKQGKSPQLLVYNAKTLADGVPSRFSGSGSGTQYSLKINSLQPEDFGSYYCQHFWSTPRTFGGGTKLEIKRTVAAPSVFIFPPSDEQLKSGTASVVCLLNNFYPREAKVQWKVDNALQSGNSQESVTEQDSKDSTYSLSSTLTLSKADYEKHKVYACEVTHQGLSSPVTKSFNRGEC

- EC50 [8]: 6.25 nM
- EC50 [9]: 9.09 nM
- Emax (pg/ml), IFN-γ release, human MLR (EC50 N/A) [10]: 3570 pg/mL
B7: FS22-172-003-AA/HeID1.3 (bispecific antibody, human IgG1, kappa, L234A L235A)
heavy: QVQLQESGPGLVRPSQTLSLTCTVSGSTFSGYGVNWVRQPPGRGLEWIGMIWGDGNTDYNSALKSRVTMLVDTSKNQFSLRLSSVTAADTAVYYCARERDYRLDYWGQGSLVTVSSASTKGPSVFPLAPSSKSTSGGTAALGCLVKDYFPEPVTVSWNSGALTSGVHTFPAVLQSSGLYSLSSVVTVPSSSLGTQTYICNVNHKPSNTKVDKKVEPKSCDKTHTCPPCPAPEAAGGPSVFLFPPKPKDTLMISRTPEVTCVVVDVSHEDPEVKFNWYVDGVEVHNAKTKPREEQYNSTYRVVSVLTVLHQDWLNGKEYKCKVSNKALPAPIEKTISKAKGQPREPQVYTLPPSRDELPYIIPPYNQVSLTCLVKGFYPSDIAVEWESNGQPENNYKTTPPVLDSDGSFFLYSKLTVGADRWLEGNVFSCSVMHEALHNHYTQKSLSLSPG
light: DIQMTQSPASLSASVGETVTITCRASGNIHNYLAWYQQKQGKSPQLLVYNAKTLADGVPSRFSGSGSGTQYSLKINSLQPEDFGSYYCQHFWSTPRTFGGGTKLEIKRTVAAPSVFIFPPSDEQLKSGTASVVCLLNNFYPREAKVQWKVDNALQSGNSQESVTEQDSKDSTYSLSSTLTLSKADYEKHKVYACEVTHQGLSSPVTKSFNRGEC
notes: mock mAb^2 with LALA
